# Measurements published in patent US20260070978A1 (LENTIGEN TECHNOLOGY, published 2026).
# Changes are numbered by the printed parent chain.
# T1: recombinant human CD19 (human, UniProt P15391 20-291, limits assumed, fluorescent label, kind and site not stated)
# T1 construct: soluble labeled antigen titrated on yeast; sorting steps used CD19-Fc, so the labeled antigen may be the Fc fusion; also called labeled CD19; fluorescently tagged antigen
# T1 sequence (looked up): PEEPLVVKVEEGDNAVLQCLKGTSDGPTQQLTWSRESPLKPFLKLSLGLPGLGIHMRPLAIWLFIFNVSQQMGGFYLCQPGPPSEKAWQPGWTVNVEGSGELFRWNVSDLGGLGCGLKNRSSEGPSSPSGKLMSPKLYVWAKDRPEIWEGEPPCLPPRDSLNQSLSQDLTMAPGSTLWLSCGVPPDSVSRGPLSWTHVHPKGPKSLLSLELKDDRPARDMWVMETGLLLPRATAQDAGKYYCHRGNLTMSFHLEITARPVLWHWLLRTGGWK
# T2: recombinant human CD22 (human, UniProt P20273 20-687, limits assumed, fluorescent label, kind and site not stated)
# T2 construct: soluble labeled antigen titrated on yeast; sorting steps used CD22-Fc, so the labeled antigen may be the Fc fusion; also called labeled CD22; fluorescently tagged antigen
# T2 sequence (looked up): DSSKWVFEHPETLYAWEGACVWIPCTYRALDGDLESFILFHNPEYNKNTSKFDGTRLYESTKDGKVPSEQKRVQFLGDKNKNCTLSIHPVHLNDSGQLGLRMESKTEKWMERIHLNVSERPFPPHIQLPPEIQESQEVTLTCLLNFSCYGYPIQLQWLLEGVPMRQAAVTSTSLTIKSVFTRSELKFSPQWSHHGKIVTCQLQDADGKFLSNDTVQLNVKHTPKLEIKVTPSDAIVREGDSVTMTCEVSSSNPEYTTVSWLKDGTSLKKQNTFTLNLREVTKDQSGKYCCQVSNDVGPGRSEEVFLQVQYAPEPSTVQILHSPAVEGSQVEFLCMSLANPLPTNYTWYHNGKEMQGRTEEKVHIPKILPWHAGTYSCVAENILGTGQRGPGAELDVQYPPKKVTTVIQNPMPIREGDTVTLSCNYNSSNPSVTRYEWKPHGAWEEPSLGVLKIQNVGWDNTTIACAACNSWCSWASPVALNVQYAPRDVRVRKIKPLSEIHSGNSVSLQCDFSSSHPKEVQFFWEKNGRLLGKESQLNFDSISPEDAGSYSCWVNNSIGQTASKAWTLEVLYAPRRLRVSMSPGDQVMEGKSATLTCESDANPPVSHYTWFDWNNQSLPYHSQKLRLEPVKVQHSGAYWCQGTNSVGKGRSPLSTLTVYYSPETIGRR
# B1: human anti-CD19 ScFv binder M19217-1 (scFv)
# scFv: EVQLVQSGAEVKKPGASVKVSCKASGYTFTSYYMHWVRQAPGQGLEWMGLINPSGGSTSYAQKFQGRVTMTRDTSTSTVYMELSSLRSEDTAVYYCARSDRGITATDAFDIWGQGTMVTVSSGGGGSGGGGSGGGGSQSVLTQPPSVSVAPGRMAKITCGGSDIGNKNVHWYQQKPGQAPVLVVYDDYDRPSGIPERFSGSNSGDAATLTISTVEVGDEADYFCQVWDGSGDPYWMFGGGTQLTVL
# notes: also called LTG2065
# B2: human anti-CD19 ScFv binder M19217 (scFv)
# chain: EVQLVQSGAEVKKPGASVKVSCKASGYTFTSYYMHWVRQAPGQGLEWMGIINPSGGSTSYAQKFQGRVTMTRDTSTSTVYMELSSLRSEDTAVYYCARSDRGITATDAFDIWGQGTMVTVSSGGGGSGGGGSGGGGSQSVLTQPPSVSVAPGQTAKITCGGSDIGNKNVHWYQQKPGQAPVLVVYDDYDRPSGIPERFSGSNSGDAATLTISTVEVGDEADYFCQVWDSSGDPYWVFGGGTQLTVLG
# B3: human anti-CD19 ScFv binder M19217-23 (scFv)
# chain: B2 chain with S31G, M48I, I50L, A61E, T69A, N166D, S229G, S230I
# B4: human anti-CD19 ScFv binder M19217-40 (scFv)
# chain: B2 chain with K13R, E46V, I50L, I157T, F223V, S229G
# B5: human anti-CD19 ScFv binder M19217-29 (scFv)
# chain: B2 chain with I50M, V169A, P195S, S229G, Y234F
# B6: human anti-CD19 ScFv binder M19217-2 (scFv)
# chain: B2 chain with L45F, I50L, G56S, S85N, S148P, T158I, S229G
# B7: human anti-CD19 ScFv binder M19217-7 (scFv)
# chain: B2 chain with K12N, I50M, A105S, V149L, D189N, A206S, S229G
# B8: human anti-CD19 ScFv binder M19217-38 (scFv)
# chain: B2 chain with K13R, Q43R, I50L, K63E, T74M, T104S, T154M, D189N, S229G, V245D
# B9: human anti-CD22 ScFv binder 16P17 (scFv, V domains shown)
# VH: QVQLQQSGPGLVKHSQTLSLTCAISGDSVSSNSAAWNWIRQSPSRGLEWLGRTYYRSKWYNDYAVSVKSRITINPDTSKNQFSLQLNSVTPEDTAVYYCAQEVEPHDAFDIWGQGTMVTVSS
# VL: DIQMTQSPSSVYASVGDKVTITCRASQDVSGWLAWYQQKPGLAPQLLISGASTLQGEVPSRFSGSGSGTDFTLTISSLQPEDFATYYCQQAKYFPYTFGQGTKLEIK
# Molecular target: T1, recombinant human CD19
# Assay: flow cytometry of yeast-displayed scFv with decreasing amounts of labeled CD19
# Protocol: To increase the affinity of m19217, a yeast-display m19217 mutant scFv library was created by using error-prone PCR to create random point mutations in scFv gene sequences. After electroporation, the resulting mutant library was then grown overnight at 30° C. for 16 hours in SDCAA medium and then switched into SGCAA medium at 30° C. for another 16 hours. The mutant library was then sorted through MACS (immunomagentic column, Miltenyi Biotec) with CD19-Fc as the capture antigen to downsize the library and to increase the population of mutants that could bind to CD19-Fc. The strongest binders were then selected by double staining the pools with Anti-c-Myc-Alexa 488 and CD19-Fc/Anti-Hu-Fc and selecting for the binders that had the highest binding affinities as well as c-Myc expression levels. This process was then repeated two more times, until flow cytometry of yeast particles with fluorescently tagged antigen yielded average binding affinities of the mutant pools that were increased over the starting construct. Binding affinities were estimated by flow cytometry of yeast pools using decreasing amounts of labeled CD19.
row,EC50 [µg/mL],Binder
1,< 0.01,B1
2,0.5,B2
3,< 0.01,B3
4,< 0.01,B4
5,< 0.01,B5
6,< 0.01,B6
7,< 0.01,B7
8,< 0.01,B8

# Molecular target: T2, recombinant human CD22
# Assay: flow cytometry of yeast-displayed scFv with decreasing amounts of labeled CD22
row,EC50 [µg/mL],Binder
1,< 0.01,B9
